Numbered stars: 1 amine (or outer) side, 2 acyl side, 3 side chain; on linkers, the order of the positions; unused ones are H or OH. Square brackets hold non-standard residues; d marks the D form. Side chains are listed from the residue outwards. Ends that are not written are not given here. Peptide text beside a SMILES is read from it. * marks the point of attachment. C20 diacid = O=C(O)CCCCCCCCCCCCCCCCCCC(=O)*; C18 diacid = O=C(O)CCCCCCCCCCCCCCCCC(=O)*; γGlu = O=C(O)[C@H](CCC(=O)[*:2])N[*:1]; AEEA = NCCOCCOCC(=O)O; Aib = CC(C)(N)C(=O)O
T1: human GLP-2 receptor (Homo sapiens, UniProt O95838, D470N)
T1 sequence (O95838 1-553 D470N): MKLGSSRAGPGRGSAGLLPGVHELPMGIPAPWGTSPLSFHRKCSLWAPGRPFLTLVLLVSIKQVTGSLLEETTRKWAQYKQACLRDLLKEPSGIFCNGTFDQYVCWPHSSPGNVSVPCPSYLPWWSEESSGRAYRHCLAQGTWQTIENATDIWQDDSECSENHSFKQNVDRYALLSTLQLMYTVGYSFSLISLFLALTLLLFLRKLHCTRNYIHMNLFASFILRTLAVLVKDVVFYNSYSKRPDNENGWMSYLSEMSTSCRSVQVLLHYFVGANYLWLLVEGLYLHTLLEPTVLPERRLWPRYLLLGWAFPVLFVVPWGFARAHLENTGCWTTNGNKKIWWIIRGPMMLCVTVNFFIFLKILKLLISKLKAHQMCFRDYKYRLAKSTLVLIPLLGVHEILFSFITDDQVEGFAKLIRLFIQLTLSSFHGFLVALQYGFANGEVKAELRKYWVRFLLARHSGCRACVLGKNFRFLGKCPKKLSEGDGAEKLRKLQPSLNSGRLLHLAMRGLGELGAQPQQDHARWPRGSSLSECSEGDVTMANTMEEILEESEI

T2: human GLP-2 receptor (hGLP2-R) (human, UniProt O95838)
T2 sequence: T1 sequence (O95838 1-553 D470N)


Key:
human GLP-1 receptor = target: T3, human GLP-1 receptor (Homo sapiens, UniProt P43220); assay: GLP-1 receptor potency assay (cAMP AlphaScreen); format: cell-based; settings: HEK293 cells expressing human GLP-1R, cAMP response
T3 construct: expressed in transfected cells
T3 sequence (P43220 24-463): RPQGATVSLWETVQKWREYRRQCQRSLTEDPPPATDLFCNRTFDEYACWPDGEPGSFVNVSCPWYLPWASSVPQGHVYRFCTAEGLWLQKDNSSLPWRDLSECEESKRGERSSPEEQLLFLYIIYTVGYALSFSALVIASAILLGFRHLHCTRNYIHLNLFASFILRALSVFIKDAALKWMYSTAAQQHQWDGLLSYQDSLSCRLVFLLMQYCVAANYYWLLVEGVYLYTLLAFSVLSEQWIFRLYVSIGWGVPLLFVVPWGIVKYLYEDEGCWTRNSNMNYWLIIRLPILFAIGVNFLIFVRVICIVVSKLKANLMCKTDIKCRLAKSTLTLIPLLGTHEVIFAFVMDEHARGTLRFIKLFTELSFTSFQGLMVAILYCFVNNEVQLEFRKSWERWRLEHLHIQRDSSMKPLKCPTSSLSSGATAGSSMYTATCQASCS
Excerpt: The cDNA encoding the human glucagon-like peptide 1 receptor (GLP-1R) (primary accession number P43220) was cloned from the cDNA BC112126(MGC:138331/IMAGE:8327594). The DNA encoding the GLP-1-R was amplified by PCR using primers encoding terminal restriction sites for subcloning. The 5′-end primers additionally encoded a near Kozak consensus sequence to ensure efficient translation. The fidelity of the DNA encoding the GLP-1-R was confirmed by DNA sequencing. The PCR products encoding the GLP-1-R were subcloned into a mammalian expression vector containing a neomycin (G418) resistance marker. The mammalian expression vectors encoding the GLP-1-R were transfected into HEK293 cells by a standard calcium phosphate transfection method. 48 hours post- transfection, cells were seeded for limited dilution cloning and selected with 1 mg/ml G418 in the culture medium. Following 3 weeks in G418 selection clones were picked and tested in a functional GLP-1 receptor potency assay as described below. One clone was selected for use in compound profiling.
GLP-1R and GLP-2 receptor potency assays.
The cAMP AlphaScreen® assay from Perkin Elmer was used to quantitate the cAMP response to activation of the GLP1 and GLP2 receptor, respectively. […]

human GLP-2 receptor = target: T1, human GLP-2 receptor; assay: GLP-2 receptor potency assay (cAMP AlphaScreen); format: cell-based; settings: HEK293 cells expressing human GLP-2R, cAMP response; N/A = no detectable activity
Excerpt: The hGLP2-R was purchased from MRC-geneservice, Babraham, Cambridge as an Image clone: 5363415 (11924-117). For subcloning into a mammalian expression vector, primers for subcloning were obtained from DNA-Technology, Risskov, Denmark. The 5′ and 3′ primers used for the PCR reaction include terminal restriction sites for cloning and the context of the 5′ primer is modified to a Kozak consensus without changing the sequence of the product encoded by the ORF. A standard PCR reaction was run using Image clone 5363415 (11924-117) as a template with the above mentioned primers and Polymerase Herculase II Fusion in a total vol. of 50 μl. The generated PCR product was purified using GFX PCR and Gel band purification kit, digested with restriction enzymes and cloned into the mammalian expression vector using Rapid DNA Ligation Kit. Ligation reaction was transformed to XL10 Gold Ultracompetent cells and colonies were picked for DNA production using Endofree Plasmid maxi kit. Subsequent sequence analysis was conducted by MWG Eurofins, Germany.
HEK293 cells were transfected using the Lipofectamine PLUS transfection method. The day before transfection, HEK293 cells were seeded in two T75 flasks at a density of 2×10^6 cells/T75 flask in cell culturing medium without antibiotics. […] Following 4 weeks in G418 selection, clones were picked and tested in a functional GLP-2 receptor potency assay as described below.
Data from test compounds eliciting an increase in the intracellular level of cAMP were normalized relative to the positive and negative control (vehicle) to calculate the EC50 and maximal response from the concentration response curve.

[1] = target: T2, human GLP-2 receptor (hGLP2-R)
[2] = target: human glucagon-like peptide 1 receptor (GLP-1R) (human) (UniProt P43220)
[3] = target: human GLP-2 receptor (hGLP2-R) (human) (UniProt O95838)

| Molecule | EC50 (human GLP-1 receptor) [nM] | EC50 (human GLP-2 receptor) [nM] | EC50 GLP-2 (nM), cAMP AlphaScreen [1] [nM] | EC50 GLP-1 (nM), cAMP AlphaScreen [2] [nM] | EC50 GLP-2 (nM), cAMP AlphaScreen [3] [nM] |
| --- | --- | --- | --- | --- | --- |
| CC[C@H](C)[C@H](NC(=O)[C@H](Cc1ccccc1)NC(=O)[C@H](CC(=O)O)NC(=O)[C@H](CCCCNC(=O)COCCOCCNC(=O)[C@H](CCCCN)NC(=O)[C@H](CCC(=O)O)NC(=O)[C@H](CCCCN)NC(=O)CC[C@H](NC(=O)CCCCCCCCCCCCCCCCCCC(=O)O)C(=O)O)NC(=O)[C@H](C)NC(=O)[C@H](C)NC(=O)[C@H](CCC(N)=O)NC(=O)[C@H](CCC(=O)O)NC(=O)[C@H](CC(=O)O)NC(=O)[C@H](CC(C)C)NC(=O)[C@@H](NC(=O)[C@@H](NC(=O)[C@H](C)NC(=O)[C@H](CC(C)C)NC(=O)[C@H](CCC(=O)O)NC(=O)[C@H](CO)NC(=O)[C@@H](NC(=O)[C@H](Cc1ccccc1)NC(=O)[C@H](CO)NC(=O)CNC(=O)[C@H](CCC(=O)O)NC(=O)C(C)(C)NC(=O)[C@@H](N)Cc1c[nH]cn1)[C@@H](C)O)[C@@H](C)O)[C@@H](C)CC)C(=O)N[C@@H](C)C(=O)N[C@@H](Cc1c[nH]c2ccccc12)C(=O)N[C@@H](CC(C)C)C(=O)N[C@H](C(=O)N[C@@H](CCC(=O)O)C(=O)N[C@@H](Cc1c[nH]cn1)C(=O)N[C@@H](CCCCN)C(=O)N[C@H](C(=O)N[C@H](C(=O)N[C@@H](CC(=O)O)C(=O)O)[C@@H](C)O)[C@@H](C)CC)[C@@H](C)CC [Compound 64] (H-H[Aib]EGSFTSELATILDEQAAK([AEEA-Lys-Glu-Lys-γGlu-C20 diacid])DFIAWLIEHKITD-OH) | 0.49 | 0.2 |  |  |  |
| CC[C@H](C)[C@H](NC(=O)[C@H](Cc1ccccc1)NC(=O)[C@H](CC(=O)O)NC(=O)[C@H](CCCNC(=N)N)NC(=O)[C@H](C)NC(=O)[C@H](C)NC(=O)[C@H](CCC(N)=O)NC(=O)[C@H](CCC(=O)O)NC(=O)[C@H](CC(=O)O)NC(=O)[C@H](CC(C)C)NC(=O)[C@@H](NC(=O)[C@@H](NC(=O)[C@H](C)NC(=O)[C@H](CCCCNC(=O)COCCOCCNC(=O)[C@H](CCCCN)NC(=O)[C@H](CCC(=O)O)NC(=O)[C@H](CCCCN)NC(=O)CC[C@H](NC(=O)CCCCCCCCCCCCCCCCCCC(=O)O)C(=O)O)NC(=O)[C@H](CCC(=O)O)NC(=O)[C@H](CO)NC(=O)[C@@H](NC(=O)[C@H](Cc1ccccc1)NC(=O)[C@H](CO)NC(=O)CNC(=O)[C@H](CCC(=O)O)NC(=O)C(C)(C)NC(=O)[C@@H](N)Cc1c[nH]cn1)[C@@H](C)O)[C@@H](C)O)[C@@H](C)CC)C(=O)N[C@@H](C)C(=O)N[C@@H](Cc1c[nH]c2ccccc12)C(=O)N[C@@H](CC(C)C)C(=O)N[C@H](C(=O)N[C@@H](CCC(=O)O)C(=O)N[C@@H](Cc1c[nH]cn1)C(=O)N[C@@H](CCCCN)C(=O)N[C@H](C(=O)N[C@H](C(=O)N[C@@H](CC(=O)O)C(=O)O)[C@@H](C)O)[C@@H](C)CC)[C@@H](C)CC [Compound 53] (H-H[Aib]EGSFTSEK([AEEA-Lys-Glu-Lys-γGlu-C20 diacid])ATILDEQAARDFIAWLIEHKITD-OH) |  | 0.24 |  |  |  |
| H[Aib]DGSFSSELATILDK([γGlu-C18 diacid])QAARDFIAWLIQHKITD (ends and bridges not checked) [reference compound A] |  |  |  | 0.49 | 0.083 |

Next, values leading:

| EC50 (human GLP-1 receptor) [nM] | EC50 (human GLP-2 receptor) [nM] | EC50 GLP-2 (nM), cAMP AlphaScreen [1] [nM] | EC50 GLP-1 (nM), cAMP AlphaScreen [2] [nM] | EC50 GLP-2 (nM), cAMP AlphaScreen [3] [nM] | Molecule |
| --- | --- | --- | --- | --- | --- |
| 0.31 | 0.17 |  |  |  | CC[C@H](C)[C@H](NC(=O)[C@H](Cc1ccccc1)NC(=O)[C@H](CC(=O)O)NC(=O)[C@H](CCCNC(=N)N)NC(=O)[C@H](C)NC(=O)[C@H](C)NC(=O)[C@H](CCCCNC(=O)COCCOCCNC(=O)COCCOCCNC(=O)[C@H](CCCCN)NC(=O)[C@H](CCC(=O)O)NC(=O)[C@H](CCCCN)NC(=O)CC[C@H](NC(=O)CCCCCCCCCCCCCCCCCCC(=O)O)C(=O)O)NC(=O)[C@H](C)NC(=O)[C@H](CC(=O)O)NC(=O)[C@H](CC(C)C)NC(=O)[C@@H](NC(=O)[C@@H](NC(=O)[C@H](C)NC(=O)[C@H](CC(C)C)NC(=O)[C@H](CCC(=O)O)NC(=O)[C@H](CO)NC(=O)[C@@H](NC(=O)[C@H](Cc1ccccc1)NC(=O)[C@H](CO)NC(=O)CNC(=O)[C@H](CCC(=O)O)NC(=O)C(C)(C)NC(=O)[C@@H](N)Cc1c[nH]cn1)[C@@H](C)O)[C@@H](C)O)[C@@H](C)CC)C(=O)N[C@@H](C)C(=O)N[C@@H](Cc1c[nH]c2ccccc12)C(=O)N[C@@H](CC(C)C)C(=O)N[C@H](C(=O)N[C@@H](CCC(=O)O)C(=O)N[C@@H](Cc1c[nH]cn1)C(=O)N[C@@H](CCCCN)C(=O)N[C@H](C(=O)N[C@H](C(=O)N[C@@H](CC(=O)O)C(=O)O)[C@@H](C)O)[C@@H](C)CC)[C@@H](C)CC [Compound 63] (H-H[Aib]EGSFTSELATILDAK([AEEA-AEEA-Lys-Glu-Lys-γGlu-C20 diacid])AARDFIAWLIEHKITD-OH) |
|  |  | 0.027 | 39 |  | Teduglutide (from UniProt P01275) (peptide) |
|  |  |  | 3.9 | 0.28 | H[Aib]EGSFSSELATILDK([γGlu-C18 diacid])QAARDFIAWLIQHKITD (ends and bridges not checked) [reference compound B] |
